Patent publication US20050152903A1 (CRITICAL THERAPEUTICS, published 2005)
Where no end group is shown, it is not given here.

T1: peptide corresponding to amino acid residues 143-160 of human HMGB1 (human)
T1 construct: Non-biotinylated
T1 peptide: PYEKKAAKLKEKYEKDIA

T2: peptide corresponding to amino acid residues 157-174 of human HMGB1 (human)
T2 construct: Non-biotinylated; also called HMGB1 157-174 peptide; Human HMGB1-157-174
T2 peptide: KDIAAYRAKGKPDAAKKG

T3: CHO HMGB2 (Chinese hamster (CHO cells), UniProt A0A8C2QD03 1-210)
T3 construct: also called non-recombinant (natural) HMGB2 from Chinese Hamster Ovary (CHO) cells
T3 sequence: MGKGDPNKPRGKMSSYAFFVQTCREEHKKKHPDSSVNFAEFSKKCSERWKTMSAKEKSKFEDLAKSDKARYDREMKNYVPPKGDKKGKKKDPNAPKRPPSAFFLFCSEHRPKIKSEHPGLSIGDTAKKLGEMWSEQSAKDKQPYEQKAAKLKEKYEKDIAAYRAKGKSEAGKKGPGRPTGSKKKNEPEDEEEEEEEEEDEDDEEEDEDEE

T4: peptide corresponding to amino acid residues 46-63 of human HMGB2 (human, also: biotinylated (position not given here))
T4 construct: also called HMGB2 46-63 peptide; huHMGB2-46-63-B
T4 peptide: SERWKTMSAKEKSKFEDM

T5: peptide corresponding to amino acid residues 40-57 of human HMGB1 (human)
T5 construct: Non-biotinylated; also called HMGB1 40-57 peptide; Human HMGB1-40-57
T5 peptide: EFSKKCSERWKTMSAKEK

T6: peptide consisting of a scrambled sequence of amino acid residues 46-63 of human HMGB1
T6 construct: Non-biotinylated; scrambled control; also called Human HMGB1-46-63-scr
T6 peptide: RMKEESSAKDGWFTEMKK

T7: peptide corresponding to amino acid residues 53-70 of human HMGB1 (human)
T7 construct: Non-biotinylated; also called HMGB1 53-70 peptide; huHMGB1-53-70
T7 peptide: SAKEKGKFEDMAKADKAR

T8: recombinant rat HMGB1 (rat, UniProt P63159 1-215)
T8 sequence: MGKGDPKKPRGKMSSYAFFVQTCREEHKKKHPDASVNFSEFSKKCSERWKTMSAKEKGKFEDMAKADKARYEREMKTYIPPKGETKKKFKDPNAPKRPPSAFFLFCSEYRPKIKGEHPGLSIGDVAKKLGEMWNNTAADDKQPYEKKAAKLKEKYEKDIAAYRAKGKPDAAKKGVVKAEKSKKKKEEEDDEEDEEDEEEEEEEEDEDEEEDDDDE

T9: peptide consisting of a scrambled sequence of amino acid residues 61-78 of human HMGB1
T9 construct: Non-biotinylated; scrambled control; also called Human HMGB1-61-78_scr
T9 peptide: AKDYMEARKDTEYKMARE

T10: peptide corresponding to amino acid residues 67-84 of human HMGB1 (human)
T10 construct: Non-biotinylated; also called HMGB1 67-84 peptide; Human HMGB1-67-84
T10 peptide: DKARYEREMKTYIPPKGE

B1: 2E11 HMGB1 mAb (antibody, V domains shown)
VH: QVQLQQSGPELVRPGTSVKISCKTSGYTFLTYWMNWVKQRPGQGLEWIGQIFPASDNTYYNEMFKDKATLTVDTSSSTAYIHLSSLTSEDTAVYFCAREDSMDYWGQGTSVTVSS
VL: DIQMTQTTSSLSASLGDRVTVSCSASRGINNYLNWYQQKPDGTVKFLIYYTSSLHSGVPSRFSGSGSGTDYSLTISNLEPEDIATYYCQQYSKLPWTFGGGTKLEFK
notes: Murine hybridoma monoclonal antibody (ATCC PTA-5431); also called 2E111-1-1-2; CT3-2E11
B2: 2G7 HMGB1 mAb (antibody, V domains shown)
VH: QVQLQQSGAELVRPGSSVKISCKASGYAFSSYWMNWVKQRPGQGLEWIGQIYPGDGDTNYNGKFKGKATLTSDKSSSTAYMQLSSLTSEDSAVYFCARREPYGSYVGFGFWGQGTLVTVSA
VL: ENVLTQSPAIMSASPGEKVTMTCSASSSVSYMHWYQQKSSTSPKLWIYDTSKLASGVPGRFSGSGSGNSYSLTISSMEAEDVATYYCFQGSGYPPTFGGGTKLEIK
notes: Murine hybridoma monoclonal antibody (ATCC PTA-5432); also called 3-2G7-1-1-1; CT3-2G7
B3: peptide corresponding to amino acid residues 61-78 of human HMGB1 (peptide)
peptide: EDMAKADKARYEREMKTY
modifications: also: biotinylated (position not given here)
notes: also called HMGB1 61-78 peptide; huHMGB1-61-78-B
B4: 6E6 HMGB1 mAb (antibody, V domains shown)
VH: EVQLQQSGAELVKPGASVKLSCTASGFNIKDTYMHWVKQRPEQGLEWIGRIDPANGNTKYDPKFQGKATITADTSSNTAYLQLSSLTSEDTAVYYCARGAYWGQGTLVTVSA
VL: DIVLTQSPASLAVSLGQRATISCKASQSVDYDGDSYMNWYQQKPGQPPKLLIYAASNLESGIPARFSGSGSGTDFTLNIHPVEEEDAATYYCQQSNEDPFTFGSGTKLEIK
notes: Murine hybridoma monoclonal antibody (ATCC PTA-5433); also called 6E6-7-1-1; CT3-6E6
B5: peptide corresponding to amino acid residues 151-168 of human HMGB1 (peptide)
peptide: LKEKYEKDIAAYRAKGKP
modifications: also: biotinylated (position not given here)
B6: peptide corresponding to amino acid residues 46-63 of human HMGB1 (peptide)
peptide: SERWKTMSAKEKGKFEDM
modifications: also: biotinylated (position not given here)
notes: also called HMGB1 46-63 peptide; huHMGB1-46-63-B

Legend:
[1] = target: T1, peptide corresponding to amino acid …; assay: peptide ELISA
[2] = target: T2, peptide corresponding to amino acid …; assay: peptide ELISA
[3] = target: B5; assay: peptide ELISA (FIG. 13B)
Procedure: (§1) Biotinylated peptides bound to React-Bind Streptavidin-Coated Plates (Pierce, Rockford, Ill., Catalog # 15501) and non-biotinylated peptides bound to poly-D-lysine coated ELISA plates were used in anti-peptide ELISAs. Biotinylated peptides corresponding to particular 18 amino acid regions of human HMGB1, as well as a longer peptide corresponding to amino acid residues 9-85 of human HMGB1, were prepared and analyzed for binding to particular anti-HMGB1 monoclonal antibodies by ELISA. These peptides, and their respective sequences, are depicted in FIG. 13A. Poly-D-lysine coated plates were prepared by adding 60-100 μl/well of 0.1 mg/ml solution of poly-D-lysine in water. Plates were then incubated at room temperature for 5 minutes and were rinsed with water to remove the solution.
(§2) Briefly, using the molecular weight of the respective peptide, 1 mM peptide solutions were prepared in pyrogen-free water and diluted in 1× phosphate buffered saline. Plate wells were washed three times with 200 μl of PBS and 100 μl of the various peptide solutions were added to designated wells. The plates were then covered and incubated for 60 minutes at room temperature. The wells were then washed three times with PBS, 0.05% polyoxyethylenesorbitan (referred to herein as Tween 20™) using a volume greater than 100 μl. 200 μl of blocking buffer (5% nonfat dry milk in PBS, 0.05% Tween 20™) was added to each of the wells. The plates were covered and incubated for 60 minutes at room temperature. The wells were then washed three times with PBS, 0.05% Tween 20™ using a volume greater than 100 μl.

CHO HMGB2 = target: T3, CHO HMGB2; assay: Western blot
[4] = target: T4, peptide corresponding to amino acid …; assay: peptide ELISA
[5] = target: T5, peptide corresponding to amino acid …; assay: peptide ELISA
[6] = target: T6, peptide consisting of a scrambled …; assay: peptide ELISA
[7] = target: B6; assay: peptide ELISA (FIG. 13B)
Procedure: as §1, §2

[8] = target: T7, peptide corresponding to amino acid …; assay: peptide ELISA (FIGS. 22 and 23)
Procedure: as §1
as §2, with “200 μl of blocking buffer (5% nonfat dry milk in PBS, 0.05% Tween 20™) was added to each of the wells. The plates were covered and incubated for 60 minutes at room temperature. The wells were then washed three times with PBS, 0.05% Tween 20™ using a volume greater than 100 μl.” left out

recombinant rat HMGB1 = target: T8, recombinant rat HMGB1; assay: sandwich ELISA, mAb as capture antibody, polyclonal antibody or 6E6 as detector
Procedure: In the first method, ELISA plates were coated with a number of purified anti-HMGB1 mAbs (e.g., 2E11 HMGB1 mAb, 2G5 HMGB1 mAb, 2G7 HMGB1 mAb, 6E6 HMGB1 mAb), and incubated overnight at 4° C. The plates were then blocked with PBS, 1% BSA for one hour at 37° C. After washing, recombinant rat HMGB1 was added at the indicated concentrations, and the plates were incubated at room temperature for 1 hour. The plates were then washed and incubated with rabbit polyclonal antibodies against HMGB1 at 2 μg/ml (see U.S. Pat. Nos. 6,303,321, 6,448,223 and 6,468,533). After 1 hour at room temperature, the plates were washed and incubated for 30 minutes with goat anti-rabbit Ig-HPR (Jackson ImmunoResearch Laboratories, West Grove, Pa.) diluted at 1:1000 in PBS. After washing, the plates were developed with TMB (Invitrogen, San Diego, Calif.) and absorbance at 655 nm was measured using a plate reader.
As depicted in FIGS. 14 and 15, two different ELISA methods were used to examine the properties of particular anti-HMGB1 monoclonal antibodies. In one method, HMGB1 monoclonal antibodies 2E11 HMGB1 mAb, 2G5 HMGB1 mAb, 2G7 HMGB1 mAb, and 6E6 HMGB1 mAb, were used as capture antibodies and a polyclonal HMGB1 antibody was used as the detector antibody. […]

2G7 HMGB1 mAb [9] = target: B2; assay: competition ELISA: peptide in solution against plate-bound recombinant rat HMGB1
Procedure: (§3) HMGB1 peptide binding experiments using 2G7 HMGB1 mAb were conducted. As described, biotinylated synthetic peptides corresponding to either amino acid residues 46-63 of human HMGB1 or amino acid residues 61-78 of human HMGB1 were prepared and analyzed for binding to 2G7 HMGB1 mAb (2G7) by ELISA. Briefly, 2 μg/ml of 2G7 HMGB1 mAb was added to plate wells containing either the HMGB1 46-63 peptide or the HMGB1 61-78 peptide at each of the indicated concentrations (0, 0.33, 1, 3, 9, 27, 81 and 243 μM peptide) for one hour at 25° C. to prepare antibody-peptide samples. ELISA plates were coated with 10 μg/ml of recombinant rat HMGB1, and incubated overnight at 4° C. The plates were then blocked with reconstituted milk for one hour at 37° C. Antibody-peptide samples were then added at the concentrations listed above and incubated for one hour at room temperature. The plates were then washed and incubated with Streptavidin-HRP. After washing, the plates were developed with TMB (Invitrogen, San Diego, Calif.) and absorbance at 655 nm was measured using a plate reader.

[10] = target: T7, peptide corresponding to amino acid …; assay: peptide ELISA
[11] = target: T9, peptide consisting of a scrambled …; assay: peptide ELISA
[12] = target: T10, peptide corresponding to amino acid …; assay: peptide ELISA (FIG. 24)
Procedure: as §1
as §2, with “200 μl of blocking buffer (5% nonfat dry milk in PBS, 0.05% Tween 20™) was added to each of the wells. The plates were covered and incubated for 60 minutes at room temperature. The wells were then washed three times with PBS, 0.05% Tween 20™ using a volume greater than 100 μl.” left out

[13] = target: B3; assay: peptide ELISA (FIG. 13B)
Procedure: as §1, §2

2E11 HMGB1 mAb [14] = target: B1; assay: competition ELISA: peptide in solution with the antibody, plate-bound HMGB1
2E11 HMGB1 mAb [15] = target: B1; assay: competition ELISA: peptide in solution against plate-bound HMGB1
2G7 HMGB1 mAb [16] = target: B2; assay: competition ELISA: peptide (0.33-243 µM) with 2 µg/ml antibody, plate coated with recombinant rat HMGB1
Procedure: as §3

Binder: B1
- binding result [1]: no binding (tested: 2 µg/ml antibody)
- binding result [2]: no binding (tested: 2 µg/ml antibody)
- binding result [3]: binds

Binder: B2
- binding result (CHO HMGB2): no binding (tested: 2 µg/ml antibody)
- binding result [4]: no binding (tested: 2 µg/ml antibody)
- binding result [5]: no binding (tested: 2 µg/ml antibody)
- binding result [6]: no binding (tested: 2 µg/ml antibody)
- binding result [7]: binds
- binding result [8]: binds
- binding result (recombinant rat HMGB1): binds

Binder: B3
- binding result (2G7 HMGB1 mAb [9]): no binding (tested: up to 243 µM peptide)

Binder: B4
- binding result [10]: no binding (tested: 2 µg/ml antibody)
- binding result [11]: no binding (tested: 2 µg/ml antibody)
- binding result [12]: binds
- binding result [13]: binds
- binding result (recombinant rat HMGB1): binds

Binder: B5
- binding result (2E11 HMGB1 mAb [14]): binds

Binder: B6
- binding result (2E11 HMGB1 mAb [15]): no binding
- binding result (2G7 HMGB1 mAb [16]): binds
